Experimental data taken from US20220064254A1 (Janssen / Centocor, published 2022).
Numbering of substitutions follows the chain as printed.

B1: CAR4 (HL_HCG5_LCB7_20AA) (other)
chain: QVQLQESGPGLVKPSDTLSLTCAVSGNSITSDYAWNWIRQFPGKGLEWMGYISYSGSTTYNPSLKSRVTISRDTSKNQFSLKLSSVTPVDTAVYYCATGYYYGSGFWGQGTLVTVSSGGSEGKSSGSGSESKSTGGSDIVLTQSPDSLAVSLGERATINCKASESVEYFGTSLMHWYQQKPGQPPKLLIYAASNRESGVPDRFSGSGSGTDFTLTISSVQAEDVAVYYCQQTRKVPYTFGQGTKLEIKTSTPAPRPPTPAPTIASQPLSLRPEACRPAAGGAVHTRGLDFACDIYIWAPLAGTCGVLLLSLVITLYCKRGRKKLLYIFKQPFMRPVQTTQEEDGCSCRFPEEEEGGCELRVKFSRSADAPAYKQGQNQLYNELNLGRREEYDVLDKRRGRDPEMGGKPRRKNPQEGLYNELQKDKMAEAYSEIGMKGERRRGKGHDGLYQGLSTATKDTYDALHMQALPPR
notes: also called construct 4; pDR000083437
B2: CAR2 (HL_HCG5_LCHumanized_20AA) (other)
chain: B1 chain with V219L
notes: also called construct 2
B3: CAR3 (HL_HCF3_LCB7_20AA) (other)
chain: B1 chain with M49I
notes: also called construct 3; pDR000083436
B4: CAR1 (HL_HCG5_LCD6_20AA) (other)
chain: B1 chain with S217Q, A225S, Y228F
notes: also called construct 1; pDR000083431
B5: CAR9 (LH_LCB7_HCG5_20AA) (other)
chain: DIVLTQSPDSLAVSLGERATINCKASESVEYFGTSLMHWYQQKPGQPPKLLIYAASNRESGVPDRFSGSGSGTDFTLTISSVQAEDVAVYYCQQTRKVPYTFGQGTKLEIKGGSEGKSSGSGSESKSTGGSQVQLQESGPGLVKPSDTLSLTCAVSGNSITSDYAWNWIRQFPGKGLEWMGYISYSGSTTYNPSLKSRVTISRDTSKNQFSLKLSSVTPVDTAVYYCATGYYYGSGFWGQGTLVTVSSTSTPAPRPPTPAPTIASQPLSLRPEACRPAAGGAVHTRGLDFACDIYIWAPLAGTCGVLLLSLVITLYCKRGRKKLLYIFKQPFMRPVQTTQEEDGCSCRFPEEEEGGCELRVKFSRSADAPAYKQGQNQLYNELNLGRREEYDVLDKRRGRDPEMGGKPRRKNPQEGLYNELQKDKMAEAYSEIGMKGERRRGKGHDGLYQGLSTATKDTYDALHMQALPPR
notes: also called construct 9; pDR000083444
B6: CAR6 (LH_LCHumanized_HCF3_20AA) (other)
chain: B5 chain with V82L, M180I
notes: also called construct 6; pDR000083440
B7: CAR8 (LH_LCB7_HCF3_20AA) (other)
chain: B5 chain with M180I
notes: also called construct 8; pDR000083443
B8: CAR7 (LH_LCHumanized_HCG5_20AA) (other)
chain: B5 chain with V82L
notes: also called construct 7; pDR000083441
B9: CAR5 (LH_LCD6_HCG5_20AA) (other)
chain: B5 chain with S80Q, A88S, Y91F
notes: also called construct 5; pDR000083438
B10: CAR10 (LH_LCD6_HCF3_20AA) (other)
chain: B5 chain with S80Q, A88S, Y91F, M180I
notes: also called construct 10; pDR000083446
B11: CAR19 (KL2B359_HL) (other)
chain: QVQLQESGPGLVKPSQTLSLTCTVSGNSITSDYAWNWIRQFPGKRLEWIGYISYSGSTTYNPSLKSRVTISRDTSKNQFSLKLSSVTAADTAVYYCATGYYYGSGFWGQGTLVTVSSGGSEGKSSGSGSESKSTGGSEIVLTQSPATLSLSPGERATLSCRASESVEYFGTSLMHWYQQKPGQPPRLLIYAASNVESGIPARFSGSGSGTDFTLTISSVEPEDFAVYFCQQTRKVPYTFGGGTKVEIKTSTPAPRPPTPAPTIASQPLSLRPEACRPAAGGAVHTRGLDFACDIYIWAPLAGTCGVLLLSLVITLYCKRGRKKLLYIFKQPFMRPVQTTQEEDGCSCRFPEEEEGGCELRVKFSRSADAPAYKQGQNQLYNELNLGRREEYDVLDKRRGRDPEMGGKPRRKNPQEGLYNELQKDKMAEAYSEIGMKGERRRGKGHDGLYQGLSTATKDTYDALHMQALPPR
notes: also called KL2B359 HL CAR; rehumanized 11B6 HL CAR
B12: CAR17 (KL2B413_HL) (other)
chain: EVQLVESGGGLVQPGGSLRLSCAASGFTFSSYWMTWVRQAPGKGLEWVANIKQDGSERYYVDSVKGRFTISRDNAKNSLYLQMNSLRAEDTAVYYCARDQNYDILTGHYGMDVWGQGTTVTVSSGGSEGKSSGSGSESKSTGGSEIVLTQSPSFLSASVGDRVTITCRASQGISSYLSWYQQKPGKAPKLLIYATSTLQSGVPSRFSGSGSGTEFTLTISSLQPEDFATYYCQQLNSYPRTFGQGTKVEIKTSTPAPRPPTPAPTIASQPLSLRPEACRPAAGGAVHTRGLDFACDIYIWAPLAGTCGVLLLSLVITLYCKRGRKKLLYIFKQPFMRPVQTTQEEDGCSCRFPEEEEGGCELRVKFSRSADAPAYKQGQNQLYNELNLGRREEYDVLDKRRGRDPEMGGKPRRKNPQEGLYNELQKDKMAEAYSEIGMKGERRRGKGHDGLYQGLSTATKDTYDALHMQALPPR
notes: also called KL2B413 HL CAR; pBD000091628
B13: KL2B53 (antibody, V domains shown)
VH: EVQLVESGGGVVQPGRSLRLSCVASGFTFSSYDIHWVRQAPGKGLEWVAIISYDGSKKDYTDSVKGRFTISRDNSKNTLYLQMDSLRVEDSAVYSCARESGWSHYYYYGMDVWGQGTMVTVSS
VL: DIVMTQSPSSLSASVGDRVTITCRASQDISNYLAWYQQKPGKVPKFLIYAASTLHSGVPSRFSGSGSGTDFTLTISSLQPEDVATYYCQKYNSAPYTFGQGTRLEIKR
notes: also called KL2B53 (Fab); KL2B53 Fab
B14: KL2B413 (scFv) (scFv, V domains shown)
VH: EVQLVESGGGLVQPGGSLRLSCAASGFTFSSYWMTWVRQAPGKGLEWVANIKQDGSERYYVDSVKGRFTISRDNAKNSLYLQMNSLRAEDTAVYYCARDQNYDILTGHYGMDVWGQGTTVTVSS
VL: EIVLTQSPSFLSASVGDRVTITCRASQGISSYLSWYQQKPGKAPKLLIYATSTLQSGVPSRFSGSGSGTEFTLTISSLQPEDFATYYCQQLNSYPRTFGQGTKVEIK
B15: KL2B467 (antibody, V domains shown)
VH: QVQLVESGGGVVQPGRSLRLSCAASGFTFSYYGMHWVRQAPGKGLEWVAFISYDGSNKYYADSVKGRFTISRDNSKNTLYLQMNSLRAEDTAVYYCAHLPYSGSYWAFDYWGQGTQVTVSS
VL: QSVLTQPPSVSVAPGQTASITCGGDNIGSKSVHWYQQKPGQAPVLVVYDNSDRPSGIPERFSGSNSGTTATLTISRVEAGDEADYYCQVWDSSSDHPVVFGGGTKVTVLG
notes: also called KL2B467 (Fab); KL2B467 Fab
B16: KL2B30 (antibody, V domains shown)
VH: QVQLQESGPGLVKPSETLSLTCTVSGGSISSYYWSWIRQPPGKGLEWIGYIYYSGSTNYNPSLKSRVTISVDTSKNQFSLKLSSVTAADTAVYYCAGTTIFGVVTPNFYYGMDVWGQGTTVTVSS
VL: DIQMTQSPSFLSASVGDRVTITCRASQGISSYLAWYQQKPGKAPKFLIYAASTLQSGVPSRFSGSGSGTEFTLTISSLQPEDFATYYCQQLNSYPLTFGGGTKVEIKR
notes: also called KL2B30 (Fab); KL2B30 Fab
B17: KL2B359 (scFv) (scFv, V domains shown)
VH: QVQLQESGPGLVKPSQTLSLTCTVSGNSITSDYAWNWIRQFPGKRLEWIGYISYSGSTTYNPSLKSRVTISRDTSKNQFSLKLSSVTAADTAVYYCATGYYYGSGFWGQGTLVTVSS
VL: EIVLTQSPATLSLSPGERATLSCRASESVEYFGTSLMHWYQQKPGQPPRLLIYAASNVESGIPARFSGSGSGTDFTLTISSVEPEDFAVYFCQQTRKVPYTFGGGTKVEIK
notes: also called Clone KL2B359; rehumanized 11B6
B18: KL2B494 (antibody, V domains shown)
VH: QVQLVESGGGLVQPGGSLRLSCAASGFTFSHYAMSWVRQAPGKGLEWVSTIGGSGGSTYYADSVKGRFTISRDNSKNTLYLQMNSLRAEDTAVYYCAKPHIVMVTALLYDGMDVWGQGTMVTVSS
VL: SSELTQPPSVSVAPGQTARITCGGNNIGSKSVHWYQQKPGQAPVLVVYDDSDRPSGIPERFSGSNSGNTATLTISRVEAGDEADYYCQVWDSSSDHVVFGGGTKLTVLG
notes: also called KL2B494 (Fab); KL2B494 Fab
B19: KL2B242 (antibody, human IgG4 S228P, lambda, F234A L235A, V domains shown)
VH: QVQLQESGPGLVKPSETLSLTCTVSGGSISSYYWSWLRQPAGSGLEWIGRLYVSGFTNYNPSLKSRVTLSLDPSRNQLSLKLSSVTAADTAVYYCAGDSGNYWGWFDPWGQGTLVTVSS
VL: SYELTQPPSVSVSPGETASITCSGDQLGENYACWYQQKPGQSPVLVIYQDSKRPSGIPERFSGSNSGNTATLTISGTQALDEADYYCQAWDNSIVVFGGGTKLTVLG
notes: also called KL2B242 (Fab); KL2B242 Fab

What follows are binders tested against T1, biotinylated recombinant hK2 protein (human, UniProt P20151 25-261, biotin label (EZ-Link Sulfo-NHS-LC-Biotin)) (assay: flow cytometry; primary human T cells lentivirally transduced with the CAR (MOI 3), day 14, stained with biotinylated hK2 (1 µg/ml) then streptavidin-PE; UTD control gate 0.086).
T1 construct: In-house biotin-labelled recombinant hK2 used as the flow cytometry reagent; also called biotinylated hK2; Biotin-Hk2 protein
T1 sequence (P20151 25-261): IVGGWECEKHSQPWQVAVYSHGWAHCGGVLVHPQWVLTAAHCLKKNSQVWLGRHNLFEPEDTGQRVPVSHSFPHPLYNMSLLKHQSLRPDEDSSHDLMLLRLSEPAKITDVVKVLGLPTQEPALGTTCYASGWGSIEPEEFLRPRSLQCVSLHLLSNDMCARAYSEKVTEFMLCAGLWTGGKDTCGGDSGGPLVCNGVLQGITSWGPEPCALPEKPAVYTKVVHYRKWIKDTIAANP

percent of CD3+ T cells in the PE-positive gate (hK2 CAR) [%]	Binder
42.7	B1
23.6	B2
29.4	B3
20	B4
30.6	B5
27.8	B6
21.5	B7
35	B8
17.9	B9
20.1	B10

Each binder was assayed against T1, biotinylated recombinant hK2 protein (assay: flow cytometry; JNL (Jurkat NFAT-luciferase) cells transduced with the CAR, stained with biotinylated hK2 then streptavidin-PE; UTD control gate 0.021).

percent of cells in the PE-positive gate (hK2 CAR) [%]	Binder
64.3	B1
65.4	B2
64.3	B3
61.9	B4
68	B5
70.3	B6
66.3	B7
71.9	B8
66.4	B9
60	B10

What follows are binders tested against hK2 on target cells (VCaP, LNCaP/hK2, LNCaP, C4-2B) (human, UniProt P20151 19-261) (assay: cell-based or functional assay).
hK2 on target cells (VCaP, LNCaP/hK2, LNCaP, C4-2B), sequence (P20151 19-261): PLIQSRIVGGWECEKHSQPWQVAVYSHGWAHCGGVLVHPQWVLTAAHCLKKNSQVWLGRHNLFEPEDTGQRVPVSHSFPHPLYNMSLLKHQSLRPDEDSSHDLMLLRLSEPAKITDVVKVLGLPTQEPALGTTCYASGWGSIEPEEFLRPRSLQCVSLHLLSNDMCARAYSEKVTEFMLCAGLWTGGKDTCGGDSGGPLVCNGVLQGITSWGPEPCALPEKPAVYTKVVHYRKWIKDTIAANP

Binder	tumor cell growth inhibition (TGI, %) of hK2 positive VCaP cells, real-time IncuCyte killing assay, 96 hours [%]
B11	~100
B12	~100

Each binder was assayed against T1, biotinylated recombinant hK2 protein (assay: flow cytometry; CAR-transduced JNL cells stained with biotinylated hK2 and streptavidin-PE).

% of JNL cells stained with biotinylated hK2 (reported as CAR expression) [%]	Binder
46	B11
73.7	B12

These binders were tested against T1, biotinylated recombinant hK2 protein (assay: flow cytometry; primary human T cells lentivirally transduced with the CAR (MOI 3), day 14, stained with biotinylated hK2 (1 ug/ml) then streptavidin-PE; UTD control gate 0.065).

percent of CD3+ T cells in the PE-positive gate (hK2 CAR) [%]	Binder
45.1	B11
56	B12

Each binder was assayed against T2, soluble human Kallikrein-2 (hK2) (human, UniProt P20151 25-261) (assay: SPR; antibody captured on anti-Fc sensor chip, soluble hK2 injected; 1:1 Langmuir fit, KD = koff/kon).
T2 construct: The construct used in SPR, ELISA and MSD screening is not defined; the stated signal peptide (1-18) is left out, and the pro-peptide (19-24) may or may not have been present; also called KLK2; soluble hK2
T2 sequence (P20151 25-261): as the sequence (P20151 25-261) above

Kd [nM]	Binder
0.08	B13
34.3	B14
0.078	B15
0.46	B16
0.7 to 1	B17
0.053	B18
0.04	B19
